This note sets out measurements from IntAct's records for PubMed 22328087.

B1: Membrane protein MLC1 (Homo sapiens), Q15049 (parent)
chain: MTQEPFREELAYDRMPTLERGRQDPASYAPDAKPSDLQLSKRLPPCFSHKTWVFSVLMGSCLLVTSGFSLYLGNVFPAEMDYLRCAAGSCIPSAIVSFTVSRRNANVIPNFQILFVSTFAVTTTCLIWFGCKLVLNPSAININFNLILLLLLELLMAATVIIAARSSEEDCKKKKGSMSDSANILDEVPFPARVLKSYSVVEVIAGISAVLGGIIALNVDDSVSGPHLSVTFFWILVACFPSAIASHVAAECPSKCLVEVLIAISSLTSPLLFTASGYLSFSIMRIVEMFKDYPPAIKPSYDVLLLLLLLVLLLQAGLNTGTAIQCVRFKVSARLQGASWDTQNGPQERLAGEVARSPLKEFDKEKAWRAVVVQMAQ

The variants in the first assay derive from B1. The note with it: with at1b1_human ATP1B1, P05026.
Regarding S246R, the “effect of a mutation on the interaction” value is given as “decreasing interaction”.
Turning to S280L, the “effect of a mutation on the interaction” value is “decreasing interaction”.

Variants of B1 are the subject of another assay. The note with it: with at1b1_human ATP1B1, P05026. The source holds these as a separate data set.
Take S280L: the “effect of a mutation on the interaction” value was “disrupting interaction”.
Still for that read-out and setting: for C125R the value was “disrupting interaction”.
